Patent US20020128189A1 (Harvard, published 2002)
Ends that are not written are not given here.

T1: LexA-E12477-654 (amino acids 477 to 654 of human E12 fused to LexA) (human, UniProt P15923 477-654)
T1 construct: not shown: LexA encoded by the LexA gene of pEG202, N-terminal fusion partner
T1 sequence (looked up): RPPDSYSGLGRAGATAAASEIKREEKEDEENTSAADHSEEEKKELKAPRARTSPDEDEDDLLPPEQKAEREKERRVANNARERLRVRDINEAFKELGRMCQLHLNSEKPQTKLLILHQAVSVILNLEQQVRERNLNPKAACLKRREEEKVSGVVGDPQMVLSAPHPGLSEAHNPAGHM

B1: LexA-E12477-530 (other, human, UniProt P15923 477-530, looked up)
chain: LexA-RPPDSYSGLGRAGATAAASEIKREEKEDEENTSAADHSEEEKKELKAPRARTSP
notes: not shown: LexA encoded by the LexA gene of pEG202, N-terminal fusion partner
B2: LexA-Id3 (all of the Id3 coding sequence) (other, rat, UniProt P41138 1-119, looked up)
chain: MKALSPVRGCYEAVCCLSERSLAIARGRGKSPSAEEPLSLLDDMNHCYSRLRELVPGVPRGTQLSQVEILQRVIDYILDLQVVLAEPAPGPPDGPHLPIQTAELTPELVISKDKRSFCH
notes: Bait for the specificity test; not shown: LexA encoded by the LexA gene of pEG202, N-terminal fusion partner
B3: LexA-Oct1 (amino acids 294-429 of human Oct 1, containing the POU domain) (other, UniProt P14859 294-429, looked up)
chain: TFKQRRIKLGFTQGDVGLAMGKLYGNDFSQTTISRFEALNLSFKNMCKLKPLLEKWLNDAENLSSDSSLSSPSALNSPGIEGLSRRRKKRTSIETNIRVALEKSFLENQKPTSEEITMIADQLNMEKEVIRVWFCN
notes: range 294-429; Bait for the specificity test; not shown: LexA encoded by the LexA gene of pEG202, N-terminal fusion partner
B4: LexA-E12539-654 (other, human, UniProt P15923 539-654, looked up)
chain: PPEQKAEREKERRVANNARERLRVRDINEAFKELGRMCQLHLNSEKPQTKLLILHQAVSVILNLEQQVRERNLNPKAACLKRREEEKVSGVVGDPQMVLSAPHPGLSEAHNPAGHM
notes: also called LexA-E12 lacking this region; not shown: LexA encoded by the LexA gene of pEG202, N-terminal fusion partner
B5: Full-length human UBCH5 (interactant in the yeast two-hybrid interaction trap) (enzyme, not shown: large carriers)
chain: not shown

How the values were obtained:
[1] = target: T2, AD-UBCE2A (full-length UBCE2A fused to the B42 transcription activation domain) (rat, UniProt P63279 1-158 (human entry)); assay: yeast two-hybrid interaction trap
T2 construct: also called AD-UBCE2A library isolate; UBPCE2A
T2 sequence (P63279 whole entry, the tested form may be a part): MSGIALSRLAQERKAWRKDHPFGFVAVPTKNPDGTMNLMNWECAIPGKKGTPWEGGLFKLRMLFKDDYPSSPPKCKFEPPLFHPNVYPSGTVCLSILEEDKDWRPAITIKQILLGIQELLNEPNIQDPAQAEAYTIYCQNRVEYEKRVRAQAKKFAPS

[2] = target: B5; assay: yeast two-hybrid interaction trap
[3] = target: T2, AD-UBCE2A (full-length UBCE2A fused to …); assay: yeast two-hybrid interaction trap, beta-galactosidase
Description: In order to assess the specificity of interaction and to map the interaction domains, cells of the yeast strain EGY48/pSH18-34 were transformed with the indicated bait constructs and library/interactant plasmids, and plated on Ura⁻ His⁻ Trp⁻ glucose plates. The bait constructs used in the specificity test were: LexA-Id3, which contains all of the Id3 coding sequence; LexA-c-Myc, which contains the C-terminal 137 amino acids of mouse c-Myc; LexA-Max, which contains all of the rat Max coding sequences; and LexA-Oct1, which includes amino acids 294-429 of human Oct 1 (containing the POU domain). Eight to twelve colonies from each bait/interactant combination were picked and plated in duplicate on Ura⁻ His⁻ Trp⁻ X-gal plates containing either 2% glucose or 2% galactose, 1% raffinose, and the color was assessed after 48 hours.
The specificity of the interaction partners was further examined by transforming yeast harboring expression plasmids encoding LexA fusions with various known HLH proteins. No interaction was detected with the HLH protein, Id3 (Christy et al., 1991, Proc. Natl. Acad. Sci. USA 88:1815-1819), the bHLH-leucine zipper protein, max (Blackwood et al., 1991, Science 251:1211-1217), or the homeodomain protein, Oct 1 (Sturm et al., 1988, Genes & Dev. 2:1582-1599); only weak promoter activity was discerned following introduction of LexA-myc. […]

[4] = target: T1, LexA-E12477-654 (amino acids 477 to 654 …); assay: yeast two-hybrid interaction trap

B1: binds [1]; no binding [2].

B2: no binding [3].

B3: no binding [3].

B4: no binding [1].

B5: no binding [4].
